Experiments:
[1] = target: T1, VapB15 (Synechocystis sp. PCC 6803) (UniProt P74009); assay: EMSA; conditions: 100 mM Tris-HCl pH 8.0, 100 mM NaCl, 1 mM DTT, 10% glycerol, 0.1 mg/mL sonicated salmon sperm DNA, 25 C, 30 min; 5% native PAGE in 0.5x TBE
T1 sequence: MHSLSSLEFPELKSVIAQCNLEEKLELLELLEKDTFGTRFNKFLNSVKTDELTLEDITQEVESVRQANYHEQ

[2] = target: T2, VapB15;VapC15-His6 (Synechocystis sp. PCC 6803;Synechocystis sp. PCC 6803) (UniProt P74009+P74010); assay: EMSA
T2 sequence 1: T1 sequence
T2 sequence 2: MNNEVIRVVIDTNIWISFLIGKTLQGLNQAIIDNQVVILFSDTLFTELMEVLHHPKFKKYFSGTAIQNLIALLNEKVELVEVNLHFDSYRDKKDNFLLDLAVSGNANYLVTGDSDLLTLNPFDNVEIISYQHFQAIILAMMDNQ

| Sequence | binding [1] | binding [2] |
| --- | --- | --- |
| CAAAGCTCTGGCAACCCTGCAGAACTTTAAACCTATCCCCCTAGGCTTGGGGCCAGGGGACTTTTCAAGCAACTCCTTGGGGCACTATTTGGAAATGTGATAATGGGAGTTATAATTCGCCTCTCGGAGAAAAGTTGAAATGCACTCATTGTCATCACTGGAATTTC (double strand) [P1 (PvapBC15 promoter, PS1 and PS2)] | binds | binds more weakly |
| GAAATTCCAGTGATGACAATGAGTGCATTTCAACTTTTCTCCGAGAGGCGAATTATAACTCCCATTATCACATTTCCAAATAGTGCCCCAAGGAGTTGCTTGAAAAGTCCCC (double strand) [P2 (3' half of PS1 and whole PS2)] | no binding | – |

From publication PMC5924515
